Reference: paper PMC4620370 (Journal of Gynecologic Oncology, 2015)
No end group written: not given here. *: point of attachment. FITC = O=C1OC2(c3ccc(O)cc3Oc3cc(O)ccc32)c2ccc(NC(=S)*)cc21; Ahx = NCCCCCC(=O)O

Key:
[1] = tested on: VEGFR-3 in ovarian carcinoma tissue sections; design: species or system human; details: FITC-tagged peptide, overnight at 4℃, confocal laser scanning fluorescence microscopy; Fig. 5B, D
[2] = tested on: SKOV3 ovarian cancer cells (tumor-bearing mice); assay: In vivo targeting of 99mTc-labeled peptide to ovarian tumors; design: species or system Balb/c-nu mice; details: ~3,700 kBq ^99mTc/100 µg peptide, n=6
[3] = cited from earlier work
rhVEGFR-3 = assay: Phage screening; type: binding, human; details: negative peptide used as immunofluorescence control

With “FITC-(aminohexanoic, AHX)-WHWLPNLRHYAS [FITC-tagged peptide III]” the “interaction with VEGFR-3 (immunofluorescence)” value [1] was “could interact with VEGFR-3”.

In the case of “NHS-MAG3-SHSWHWLPNLRHYAS [^99mTc-labeled peptide]”, the “time of peak radioactivity from ovarian tumor cells after tail vein injection” value [2] is reported as 3 h.

In the case of “bevacizumab: a monoclonal antibody specific for VEGF”, the “serious adverse events associated” value [3] is listed as “venous thromboembolism, hypertension, proteinuria, arterial thrombosis, bleeding, and gastrointestinal perforation” and the “risk of fatal adverse events” value ([3]; meta-analysis that included 34 trials) is listed as “increased”.

With “{FITC-Ahx}-WHNSLKANYTWG [FITC-labeled negative peptide]” the “binding in the phage screening procedure” value (rhVEGFR-3) was “negative binding”.
